This is an account of results in paper PMC314469, “Protein Interaction Networks by Proteome Peptide Scanning” (PLoS Biology, 2004).

Holding throughout (assay): SPOT array
Test [1] addresses T1, Boi1 SH3 (BOI1_YEAST), P38041.
T1 chain: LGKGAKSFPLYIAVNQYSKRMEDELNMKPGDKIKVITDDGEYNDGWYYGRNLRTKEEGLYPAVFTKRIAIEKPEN

In test [2] the target is T2, Myo5 SH3 (MYO5_YEAST), Q04439.
T2 chain: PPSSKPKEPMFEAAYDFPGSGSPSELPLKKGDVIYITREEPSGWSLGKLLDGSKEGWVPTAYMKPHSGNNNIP

The target in test [3] is T3, Yhr016c SH3 (YSC84_YEAST), P32793.
T3 chain: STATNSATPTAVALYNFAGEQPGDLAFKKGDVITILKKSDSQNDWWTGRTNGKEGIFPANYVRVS

Test [4] addresses T4, Boi2 SH3 (BOI2_YEAST), P39969.
T4 chain: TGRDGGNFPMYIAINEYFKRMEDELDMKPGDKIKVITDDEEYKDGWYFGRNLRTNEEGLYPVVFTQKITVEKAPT

The target of test [5] is T5, Rvs167 SH3 (RV167_YEAST), P39743.
T5 chain: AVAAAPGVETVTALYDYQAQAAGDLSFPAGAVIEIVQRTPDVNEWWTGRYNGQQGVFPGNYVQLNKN

The target in test [6] is Sho1 SH3 (SHO1_YEAST), P40073.
Sho1 SH3 (SHO1_YEAST), P40073, sequence (P40073 295-366): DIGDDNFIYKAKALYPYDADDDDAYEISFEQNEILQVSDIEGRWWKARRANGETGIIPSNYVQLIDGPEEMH
In test [7] the target is T6, Yfr024 SH3 (LSB3_YEAST), P43603.
T6 chain: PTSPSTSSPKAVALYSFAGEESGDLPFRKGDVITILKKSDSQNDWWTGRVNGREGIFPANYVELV

On to LSRSKPLPLTPNSK [YCL027W 415-428], for which the normalised SPOT signal, Boehringer light units (BLU); mean over the file's lines of this peptide in test [1] came to 642; in test [2], 324; in test [3], 105; in test [4], 86.5; in test [5], 394; in test [6], 55900. In test [7], the normalised SPOT signal, Boehringer light units (BLU); mean over the file's lines of this peptide was 837.

LSKVRGRPMYPRPA [YBR083W 422-435]: the normalised SPOT signal, Boehringer light units (BLU); mean over the file's lines of this peptide in test [1] was 479; in test [2], 752; in test [3], 51.9; in test [4], 37; in test [5], 92.6; in test [6] it was 82.7. This molecule also showed a normalised SPOT signal, Boehringer light units (BLU); mean over the file's lines of this peptide in test [7] of 342.

Take LRISKPDPESPSKL [YBL101C 847-860]: the normalised SPOT signal, Boehringer light units (BLU); mean over the file's lines of this peptide is 242 in test [1]; 246 in test [2]; 74.5 in test [3]; 0.6 in test [4]; 109 in test [5]; 22.3 in test [6]. In test [7], this molecule yielded a normalised SPOT signal, Boehringer light units (BLU); mean over the file's lines of this peptide of 205.

Turning to LQNAKNDPLPPVIE [YDL077C 56-69], the normalised SPOT signal, Boehringer light units (BLU); mean over the file's lines of this peptide stood at 120 in test [1]; 58.8 in test [2]; 37.2 in test [3]; 21.8 in test [4]; 47 in test [5]; 0.2 in test [6]. This molecule gave a normalised SPOT signal, Boehringer light units (BLU); mean over the file's lines of this peptide in test [7] of 10.7.

Consider LSFDRPPPLTPEKN [YER032W 254-267], for which the normalised SPOT signal, Boehringer light units (BLU); mean over the file's lines of this peptide in test [1] was 92.6; in test [2], 174; in test [3], 7.4; in test [4] it was 0; in test [5] it was 91.3; in test [6] it was 48.1. Also, the normalised SPOT signal, Boehringer light units (BLU); mean over the file's lines of this peptide in test [7] stood at 124.

On to LPLSRVQPVQPSQT [YNL007C 295-308], for which the normalised SPOT signal, Boehringer light units (BLU); mean over the file's lines of this peptide in test [1] was 31.9; in test [2], 122; in test [3] it was 21; in test [4], 27.1; in test [5], 19.3; in test [6], 32.8. The molecule further displayed a normalised SPOT signal, Boehringer light units (BLU); mean over the file's lines of this peptide in test [7] of 163.

LSKLRLSPENPSNT [YKL101W 1214-1227]: the normalised SPOT signal, Boehringer light units (BLU); mean over the file's lines of this peptide in test [1] turned out to be 471; in test [2], 157; in test [3], 7.9; in test [4] it was 33.2; in test [5], 37.4; in test [6] it was 54.8. The molecule further showed a normalised SPOT signal, Boehringer light units (BLU); mean over the file's lines of this peptide in test [7] of 27.1.

For LQQRRYYPIFPGSI [YBL035C 565-578], the normalised SPOT signal, Boehringer light units (BLU); mean over the file's lines of this peptide was determined as 6230 in test [1]; 279 in test [2]; 44.5 in test [3]; 472 in test [4]; 91 in test [5]; 38.8 in test [6]. This molecule also gave a normalised SPOT signal, Boehringer light units (BLU); mean over the file's lines of this peptide in test [7] of 474.

For the molecule LQYHKKNPYSPLFS [YPL020C 12-25], the normalised SPOT signal, Boehringer light units (BLU); mean over the file's lines of this peptide in test [1] was determined as 451; in test [2], 318; in test [3], 80.3; in test [4] it was 99.3; in test [5], 208; in test [6], 63.3. In test [7], this molecule yielded a normalised SPOT signal, Boehringer light units (BLU); mean over the file's lines of this peptide of 73.4.

As for LTIFKRPPKQPGHQ [YOL006C 477-490], the normalised SPOT signal, Boehringer light units (BLU); mean over the file's lines of this peptide in test [1] amounted to 135; in test [2], 703; in test [3] it was 730; in test [4], 37.3; in test [5], 160; in test [6] it was 93.6. Besides, in test [7], the normalised SPOT signal, Boehringer light units (BLU); mean over the file's lines of this peptide was 1030.

On to LSPAKARPSFPHND [YOR178C 9-22], for which the normalised SPOT signal, Boehringer light units (BLU); mean over the file's lines of this peptide in test [1] worked out at 807; in test [2], 213; in test [3], 47.2; in test [4] it was 31.9; in test [5], 174; in test [6], 53.3. This molecule had a normalised SPOT signal, Boehringer light units (BLU); mean over the file's lines of this peptide in test [7] of 2350.

LSYLKDLPFVPFLF [YNL143C 64-77]: the normalised SPOT signal, Boehringer light units (BLU); mean over the file's lines of this peptide worked out at 62.5 in test [1]; 213 in test [2]; 18.8 in test [3]; 6.6 in test [4]; 44.3 in test [5]; 22900 in test [6]. In test [7], this molecule came in with a normalised SPOT signal, Boehringer light units (BLU); mean over the file's lines of this peptide of 125.

Regarding LTKIRRRPQQPLTD [YER047C 13-26], the normalised SPOT signal, Boehringer light units (BLU); mean over the file's lines of this peptide in test [1] turned out to be 3090; in test [2], 393; in test [3], 71.9; in test [4], 84.8; in test [5], 388; in test [6], 117. The molecule also returned a normalised SPOT signal, Boehringer light units (BLU); mean over the file's lines of this peptide in test [7] of 937.

On to LSGTRLVPNSPLLW [YBR055C 692-705], for which the normalised SPOT signal, Boehringer light units (BLU); mean over the file's lines of this peptide in test [1] stood at 73.7; in test [2], 432; in test [3] it was 80.1; in test [4], 29.6; in test [5], 1460; in test [6], 94. In test [7], this molecule registered a normalised SPOT signal, Boehringer light units (BLU); mean over the file's lines of this peptide of 1410.
